# Marks after values point to notes of the source that are not given here.
# B1: Protein II: IgG2-Fc linked to antiangiogenesis polypeptide EDSM-Y via a flexible linker; SEQ ID NO: 17 (protein)
# chain: ERKCCVECPPCPAPPVAGPSVFLFPPKPKDTLMISRTPEVTCVVVDVSHEDPEVQFNWYVDGVEVHNAKTKPREEQFNSTFRVVSVLTVVHQDWLNGKEYKCKVSNKGLPAPIEKTISKTKGQPREPQVYTLPPSREEMTKNQVSLTCLVKGFYPSDISVEWESNGQPENNYKTTPPMLDSDGSFFLYSKLTVDKSRWQQGNVFSCSVMHEALHNHYTQKSLSLSPGKGGGGSGGGGSGGGGSFQPVLHLVALNSPLSGGMRGIRGADFQCFQQARAVGLAGTFRAGGGGRGD
# What was measured:
# Format in all cases: cell-based
# human glioma U87 = experiment: MTT assay, proliferation of human glioma U87
# Description: (§1) The MTT assay was used to detect the inhibitory effect of the integrin blocker fusion protein obtained in Example 1 on the proliferation of various tumor cells, including melanoma cell B16F10, gastric cancer cell MGC-803, lung cancer cell A549, liver cancer cell Hep-G2, breast cancer cell MDA-MB-231, colon cancer cell HCT-116, human glioma U87, and cervical cancer cell Hela.
# (§2) The tumor cells were cultured in a 5% CO2 incubator at 37° C. to a density of 90% or more, and collected by trypsinization. The cells were resuspended in the culture liquid and counted under a microscope. The cell concentration was adjusted to 3.0×10^4 cells/mL. The cell suspension was inoculated into a 96-well plate at 100 μL per well and cultured overnight in a 5% CO2 incubator at 37° C. […] After the cells were fully adhered, each dilution was added to a 96-well plate at 100 μL per well, respectively. […] 20 μL of 5 mg/mL MTT was added to each well of a 96-well plate, and incubation was continued for 4 hours. The medium was aspirated and 100 μL of DMSO per well were added to dissolve. The absorbance was measured at 570 nm with a microplate reader with a reference wavelength of 630 nm, and the proliferation inhibition (PI) was calculated. The formula is as follows: […]
# (§3) where Ntest is the OD value of the test group and Ncontrol is the OD value of the blank control group.
# (§4) The test was repeated 5 times independently. The results obtained from the test were calculated as mean±SD, and statistical t-test was performed. P<0.05 was considered as a significant difference, and P<0.01 was considered as an extremely significant difference.
# [1] = tested on: human umbilical vein endothelial cells (HUVEC); experiment: Three-dimensional transwell assay, migration of HUVEC
# Description: Human umbilical vein endothelial cells (HUVECs) were cultured with endothelial cell culture fluid containing 5% fetal bovine serum and 1×ECGS in a 5% CO2 incubator at 37° C., to a confluence of 90% or more, and then inhibitory effects of fusion protein I, protein II, protein III, protein IV, and protein V on migration of endothelial cells were detected by transwell assay, in which only endothelial cells HUVEC of passage 2 to 8 were used, and the specific operation was as follows.
# (1) 10 mg/mL Matrigel was diluted with a DMEM medium at a ratio of 1:4, coated on a transwell chamber membrane, and air-dried at room temperature.
# (2) HUVEC cells cultured to logarithmic phase were digested with 0.2% EDTA, collected, washed twice with PBS, followed by resuspended in an endothelial cell culture liquid containing 0.1% BSA, counted under a microscope, and the cell concentration was adjusted to 1×10^5 cells/mL;
# (3) Test solutions for each group were formulated and diluted to 100 μL with a cell culture liquid containing 0.1% BSA;
# Groups were divided as follows:
# Blank control group: a cell culture liquid containing no drug;
# Endostar group: 5 mg/mL Endostar solution diluted to a predetermined concentration with a cell culture liquid containing no drug; […]
# (4) The cells were inoculated into a transwell chamber at 100 μL per well, and test solutions for each group were added to the chamber. To a 24-well plate, 0.6 mL of endothelial cell culture liquid containing 5% fetal bovine serum and 1×ECGS was added to stimulate cell migration, and incubated at 5% CO2 for 24 h at 37° C.
# (5) The culture liquid in the well was discarded. The cells were fixed with 90% alcohol at room temperature for 30 min, stained with 0.1% crystal violet for 10 min at room temperature, and rinsed with water. Un-migrated cells in the upper layer were gently wiped off by a cotton swab. The observation was carried out under microscope and four fields of view were selected for taking photos and counting. The migration inhibition (MI) was calculated according to the formula: […]
# where Ntest is the migration cell number in the test group, and Ncontrol is the migration cell number in the blank control group.
# The test was repeated 3 times independently. The results obtained from the test were calculated as mean±SD, and statistical t-test was performed. P<0.05 was considered as a significant difference, and P<0.01 was considered as an extremely significant difference.
# [2] = tested on: breast cancer cell MDA-MB-231; experiment: MTT assay, proliferation of breast cancer cell MDA-MB-231
# Description: as §1, §2, §3, §4
# [3] = tested on: cervical cancer cell Hela; experiment: MTT assay, proliferation of cervical cancer cell Hela
# Description: as §1, §2, §3, §4
# [4] = dose 64 μg/mL, listed as protein II
molecule,measurement,setting,value
B1,A570 nm/A630 nm,human glioma U87; dose 1 μg/mL,0.6788 ± 0.0374
same,PI (%),human glioma U87; dose 1 μg/mL,3.01%
same,A570 nm/A630 nm,human glioma U87; dose 2 μg/mL,0.6523 ± 0.0405
same,PI (%),human glioma U87; dose 2 μg/mL,6.80%
same,A570 nm/A630 nm,human glioma U87; dose 4 μg/mL,0.6021 ± 0.0233
same,PI (%),human glioma U87; dose 4 μg/mL,13.97%
same,A570 nm/A630 nm,human glioma U87; dose 8 μg/mL,0.5423 ± 0.0357
same,PI (%),human glioma U87; dose 8 μg/mL,22.52%
same,A570 nm/A630 nm,human glioma U87; dose 16 μg/mL,0.5006 ± 0.0282
same,PI (%),human glioma U87; dose 16 μg/mL,28.48%
same,A570 nm/A630 nm,human glioma U87; dose 32 μg/mL,0.4652 ± 0.0249
same,PI (%),human glioma U87; dose 32 μg/mL,33.53%
same,A570 nm/A630 nm,human glioma U87; dose 64 μg/mL,0.4080 ± 0.0366
same,PI (%),human glioma U87; dose 64 μg/mL,41.71%
same,PI (%),human glioma U87; [4],about 50%
same,A570 nm/A630 nm,human glioma U87; dose 128 μg/mL,0.3143 ± 0.0279
same,PI (%),human glioma U87; dose 128 μg/mL,55.09%
same,A570 nm/A630 nm,human glioma U87; dose 256 μg/mL,0.2222 ± 0.0316
same,PI (%),human glioma U87; dose 256 μg/mL,68.25%
same,MI (%),[1]; dose 0.25 μg/mL,16.12%
same,Migration cell number,[1]; dose 0.25 μg/mL,2108.0 ± 75.27
same,MI (%),[1]; dose 0.5 μg/mL,52.11%
same,Migration cell number,[1]; dose 0.5 μg/mL,1203.5 ± 220.14**^
same,MI (%),[1]; dose 1 μg/mL,73.06%
same,Migration cell number,[1]; dose 1 μg/mL,677.0 ± 24.72**^
same,MI (%),[1]; dose 2 μg/mL,77.34%
same,Migration cell number,[1]; dose 2 μg/mL,569.5 ± 270.29
same,MI (%),[1]; dose 4 μg/mL,65.86%
same,Migration cell number,[1]; dose 4 μg/mL,858.0 ± 145.87
same,MI (%),[1]; dose 8 μg/mL,29.88%
same,Migration cell number,[1]; dose 8 μg/mL,1762.0 ± 183.97
same,A570 nm/A630 nm,[2]; dose 1 μg/mL,0.9859 ± 0.0397
same,PI (%),[2]; dose 1 μg/mL,5.09%
same,A570 nm/A630 nm,[2]; dose 2 μg/mL,0.9552 ± 0.0419
same,PI (%),[2]; dose 2 μg/mL,8.05%
same,A570 nm/A630 nm,[2]; dose 4 μg/mL,0.9150 ± 0.0283
same,PI (%),[2]; dose 4 μg/mL,11.92%
same,A570 nm/A630 nm,[2]; dose 8 μg/mL,0.8806 ± 0.0345
same,PI (%),[2]; dose 8 μg/mL,15.23%
same,A570 nm/A630 nm,[2]; dose 16 μg/mL,0.8110 ± 0.0298
same,PI (%),[2]; dose 16 μg/mL,21.93%
same,A570 nm/A630 nm,[2]; dose 32 μg/mL,0.7546 ± 0.0274
same,PI (%),[2]; dose 32 μg/mL,27.36%
same,A570 nm/A630 nm,[2]; dose 64 μg/mL,0.6945 ± 0.0326
same,PI (%),[2]; dose 64 μg/mL,33.14%
same,A570 nm/A630 nm,[2]; dose 128 μg/mL,0.6589 ± 0.0287
same,PI (%),[2]; dose 128 μg/mL,36.57%
same,A570 nm/A630 nm,[2]; dose 256 μg/mL,0.6012 ± 0.0311
same,PI (%),[2]; dose 256 μg/mL,42.13%
same,A570 nm/A630 nm,[3]; dose 1 μg/mL,0.7798 ± 0.0386
same,PI (%),[3]; dose 1 μg/mL,2.43%
same,A570 nm/A630 nm,[3]; dose 2 μg/mL,0.7412 ± 0.0407
same,PI (%),[3]; dose 2 μg/mL,7.26%
same,A570 nm/A630 nm,[3]; dose 4 μg/mL,0.6946 ± 0.0272
same,PI (%),[3]; dose 4 μg/mL,13.09%
same,A570 nm/A630 nm,[3]; dose 8 μg/mL,0.6312 ± 0.0313
same,PI (%),[3]; dose 8 μg/mL,21.02%
same,A570 nm/A630 nm,[3]; dose 16 μg/mL,0.5418 ± 0.0286
same,PI (%),[3]; dose 16 μg/mL,32.21%
same,A570 nm/A630 nm,[3]; dose 32 μg/mL,0.4788 ± 0.0262
same,PI (%),[3]; dose 32 μg/mL,40.09%
same,A570 nm/A630 nm,[3]; dose 64 μg/mL,0.4023 ± 0.0314
same,PI (%),[3]; dose 64 μg/mL,49.66%
same,PI (%),[3]; [4],about 45%
same,A570 nm/A630 nm,[3]; dose 128 μg/mL,0.2878 ± 0.0275
same,PI (%),[3]; dose 128 μg/mL,63.99%
same,A570 nm/A630 nm,[3]; dose 256 μg/mL,0.1748 ± 0.0303
same,PI (%),[3]; dose 256 μg/mL,78.13%

# Reference: patent US11407811B2, “Fusion protein, preparation method therefor and use thereof” (JIANGSU RONGTAI BIOTECH CO., LTD., priority 2017, dated 2022)
